From patent US20210269545A1 (published 2021)

These binders were tested against T1, CD38 (human, UniProt P28907 43-300, limits assumed) (assay: BLI (Octet Red), antibody on anti-hIgG Fc (AHC) sensor).
T1 construct: Soluble antigen of the bio-layer interferometry experiments; also called Cluster of Differentiation 38; CD38 antigen (Octet)
Protocol: Binding experiments were performed on Octet Red at 25° C. The antibodies were loaded onto anti-hIgG Fc Capture (AHC) biosensors for 300 seconds. The ligand-loaded sensors were dipped into a two-fold series dilution (starting at 300 nM) of the antigens (CD19 and CD38) for 240 seconds of CD19 and 150 seconds of CD38 for association followed by dissociation for 600 seconds of CD19 and 130 seconds of CD38. Kinetic constants were calculated using a monovalent (1:1) binding model.

Row | Binder | binding result
1 | BS1M-2 (bispecific antibody, Variant of BS1; not shown: heavy chain constant region of the BS1 format) heavy 1: QVQLVQSGAEVKKPGSSVKVSCKASGGTFSSYAFSWVRQAPGQGLEWMGRVTPFLGTANSAQKFQGRVTITADKSTSTAYMELSSLRSEDTAVYYCARDDIAALGPFDYWGQGTLVTVSS heavy 2: not shown light: not shown | no binding
2 | BS1M-8 (bispecific antibody, Variant of BS1; not shown: heavy chain constant region of the BS1 format) heavy 1: QVQLVQSGAEVKKPGSSVKVSCKASGGTFSSYAFSWVRQAPGQGLEWMGRVIPHQGTANSAQKFQGRVTITADKSTSTAYMELSSLRSEDTAVYYCARDDIAALGPFDYWGQGTLVTVSS heavy 2: not shown light: not shown | no binding

Results, then the binder that gave them:

Row | binding result | Binder
3 | no binding | BS1M-5 (bispecific antibody, Variant of BS1; not shown: heavy chain constant region of the BS1 format) heavy 1: QVQLVQSGAEVKKPGSSVKVSCKASGGTFSSYAFSWVRQAPGQGLEWMGRVTPHLGTANSAQKFQGRVTITADKSTSTAYMELSSLRSEDTAVYYCARDDIAALGPFDYWGQGTLVTVSS heavy 2: not shown light: not shown
4 | no binding | BS1M-9 (bispecific antibody, Variant of BS1; not shown: heavy chain constant region of the BS1 format) heavy 1: QVQLVQSGAEVKKPGSSVKVSCKASGGTFSSYAFSWVRQAPGQGLEWMGRVIPQQGTANSAQKFQGRVTITADKSTSTAYMELSSLRSEDTAVYYCARDDIAALGPFDYWGQGTLVTVSS heavy 2: not shown light: not shown

The binders below were run against T1, CD38 (assay: BLI (Octet Red), antibody on anti-hIgG Fc (AHC) sensor, 1:1 model).

Row | Kd | Binder
5 | 94.4 nM | BS1M-4 (bispecific antibody, Variant of BS1 in the CDR-H2 of the anti-CD38 arm; not shown: heavy chain constant region of the BS1 format) heavy 1: QVQLVQSGAEVKKPGSSVKVSCKASGGTFSSYAFSWVRQAPGQGLEWMGRVIPHLGTANSAQKFQGRVTITADKSTSTAYMELSSLRSEDTAVYYCARDDIAALGPFDYWGQGTLVTVSS heavy 2: not shown light: not shown
6 | 60.5 nM | BS1M-7 (bispecific antibody, Variant of BS1 in the CDR-H2 of the anti-CD38 arm; not shown: heavy chain constant region of the BS1 format) heavy 1: QVQLVQSGAEVKKPGSSVKVSCKASGGTFSSYAFSWVRQAPGQGLEWMGRVIPQLGTANSAQKFQGRVTITADKSTSTAYMELSSLRSEDTAVYYCARDDIAALGPFDYWGQGTLVTVSS heavy 2: not shown light: not shown
